Experimental data as given in patent US12679878B2, “CRF2 receptor agonists and their use in therapy” (SANOFI, priority 2020, dated 2026).
Starred links: 1 amine or outer side, 2 acyl side, 3 side chain; linkers in the order of their positions; H or OH if unused. Non-standard residues stand in square brackets, D forms with d. Groups on a side chain read outwards from the residue. No end group written: not given here. *: point of attachment. C20 diacid = O=C(O)CCCCCCCCCCCCCCCCCCC(=O)*; C18 diacid = O=C(O)CCCCCCCCCCCCCCCCC(=O)*; C16 diacid = O=C(O)CCCCCCCCCCCCCCC(=O)*; γGlu = O=C(O)[C@H](CCC(=O)[*:2])N[*:1]; Palmitoyl = CCCCCCCCCCCCCCCC(=O)*; AEEA = NCCOCCOCC(=O)O; Aib = CC(C)(N)C(=O)O

What follows are binders tested against human corticotropin-releasing factor 2α (CRF2 α receptor) (human), Q13324 (assay: cell-based or functional assay).
Sequence of human corticotropin-releasing factor 2α (CRF2 α receptor) (human), Q13324 (Q13324 20-411): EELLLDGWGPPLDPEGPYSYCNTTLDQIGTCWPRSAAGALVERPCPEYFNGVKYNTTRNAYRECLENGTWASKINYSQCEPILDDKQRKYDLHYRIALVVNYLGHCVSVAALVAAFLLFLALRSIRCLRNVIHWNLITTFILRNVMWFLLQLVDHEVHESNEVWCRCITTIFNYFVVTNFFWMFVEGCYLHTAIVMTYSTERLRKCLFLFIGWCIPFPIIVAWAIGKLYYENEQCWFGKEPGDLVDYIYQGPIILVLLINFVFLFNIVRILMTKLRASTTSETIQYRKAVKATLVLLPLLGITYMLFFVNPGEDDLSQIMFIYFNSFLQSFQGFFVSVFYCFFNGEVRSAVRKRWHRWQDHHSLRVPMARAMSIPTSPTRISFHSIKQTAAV

Binder	EC50 [nM], 0% HSA [nM]
IVLSLD[dV]PTKLK([AEEA-AEEA-γGlu-C20 diacid])KKLLKQERKR[Aib]EREKAEKAARILERV-NH2 [SEQ ID NO: 224]	6.85
IVLSLD[dV]PTKLK([γGlu-Palmitoyl])QKLLKQERQRKER[Aib]QAEKNKRILERV-NH2 (N-terminus assumed; SMILES CCCCCCCCCCCCCCCC(=O)N[C@@H](CCC(=O)NCCCC[C@H](NC(=O)[C@H](CC(C)C)NC(=O)[C@H](CCCCN)NC(=O)[C@@H](NC(=O)[C@@H]1CCCN1C(=O)[C@H](NC(=O)[C@H](CC(=O)O)NC(=O)[C@H](CC(C)C)NC(=O)[C@H](CO)NC(=O)[C@H](CC(C)C)NC(=O)[C@@H](NC(=O)[C@@H](N)[C@@H](C)CC)C(C)C)C(C)C)[C@@H](C)O)C(=O)N[C@@H](CCC(N)=O)C(=O)N[C@@H](CCCCN)C(=O)N[C@@H](CC(C)C)C(=O)N[C@@H](CC(C)C)C(=O)N[C@@H](CCCCN)C(=O)N[C@@H](CCC(N)=O)C(=O)N[C@@H](CCC(=O)O)C(=O)N[C@@H](CCCNC(=N)N)C(=O)N[C@@H](CCC(N)=O)C(=O)N[C@@H](CCCNC(=N)N)C(=O)N[C@@H](CCCCN)C(=O)N[C@@H](CCC(=O)O)C(=O)N[C@@H](CCCNC(=N)N)C(=O)NC(C)(C)C(=O)N[C@@H](CCC(N)=O)C(=O)N[C@@H](C)C(=O)N[C@@H](CCC(=O)O)C(=O)N[C@@H](CCCCN)C(=O)N[C@@H](CC(N)=O)C(=O)N[C@@H](CCCCN)C(=O)N[C@@H](CCCNC(=N)N)C(=O)N[C@H](C(=O)N[C@@H](CC(C)C)C(=O)N[C@@H](CCC(=O)O)C(=O)N[C@@H](CCCNC(=N)N)C(=O)N[C@H](C(N)=O)C(C)C)[C@@H](C)CC)C(=O)O) [SEQ ID NO: 23]	0.02
IVLSLD[dV]PTKLK([AEEA-AEEA-γGlu-C18 diacid])QKLLKQERQRKEREQAEKNKRILERV-NH2 (N-terminus assumed; SMILES CC[C@H](C)[C@H](N)C(=O)N[C@H](C(=O)N[C@@H](CC(C)C)C(=O)N[C@@H](CO)C(=O)N[C@@H](CC(C)C)C(=O)N[C@@H](CC(=O)O)C(=O)N[C@@H](C(=O)N1CCC[C@H]1C(=O)N[C@H](C(=O)N[C@@H](CCCCN)C(=O)N[C@@H](CC(C)C)C(=O)N[C@@H](CCCCNC(=O)COCCOCCNC(=O)COCCOCCNC(=O)CC[C@H](NC(=O)CCCCCCCCCCCCCCCCC(=O)O)C(=O)O)C(=O)N[C@@H](CCC(N)=O)C(=O)N[C@@H](CCCCN)C(=O)N[C@@H](CC(C)C)C(=O)N[C@@H](CC(C)C)C(=O)N[C@@H](CCCCN)C(=O)N[C@@H](CCC(N)=O)C(=O)N[C@@H](CCC(=O)O)C(=O)N[C@@H](CCCNC(=N)N)C(=O)N[C@@H](CCC(N)=O)C(=O)N[C@@H](CCCNC(=N)N)C(=O)N[C@@H](CCCCN)C(=O)N[C@@H](CCC(=O)O)C(=O)N[C@@H](CCCNC(=N)N)C(=O)N[C@@H](CCC(=O)O)C(=O)N[C@@H](CCC(N)=O)C(=O)N[C@@H](C)C(=O)N[C@@H](CCC(=O)O)C(=O)N[C@@H](CCCCN)C(=O)N[C@@H](CC(N)=O)C(=O)N[C@@H](CCCCN)C(=O)N[C@@H](CCCNC(=N)N)C(=O)N[C@H](C(=O)N[C@@H](CC(C)C)C(=O)N[C@@H](CCC(=O)O)C(=O)N[C@@H](CCCNC(=N)N)C(=O)N[C@H](C(N)=O)C(C)C)[C@@H](C)CC)[C@@H](C)O)C(C)C)C(C)C) [SEQ ID NO: 24]	6.95
IVLSLD[dV]PTKLK([γGlu-C16 diacid])QKLLKQERQRKEREQAEKNVRILERV-NH2 (N-terminus assumed; SMILES CC[C@H](C)[C@H](N)C(=O)N[C@H](C(=O)N[C@@H](CC(C)C)C(=O)N[C@@H](CO)C(=O)N[C@@H](CC(C)C)C(=O)N[C@@H](CC(=O)O)C(=O)N[C@@H](C(=O)N1CCC[C@H]1C(=O)N[C@H](C(=O)N[C@@H](CCCCN)C(=O)N[C@@H](CC(C)C)C(=O)N[C@@H](CCCCNC(=O)CC[C@H](NC(=O)CCCCCCCCCCCCCCC(=O)O)C(=O)O)C(=O)N[C@@H](CCC(N)=O)C(=O)N[C@@H](CCCCN)C(=O)N[C@@H](CC(C)C)C(=O)N[C@@H](CC(C)C)C(=O)N[C@@H](CCCCN)C(=O)N[C@@H](CCC(N)=O)C(=O)N[C@@H](CCC(=O)O)C(=O)N[C@@H](CCCNC(=N)N)C(=O)N[C@@H](CCC(N)=O)C(=O)N[C@@H](CCCNC(=N)N)C(=O)N[C@@H](CCCCN)C(=O)N[C@@H](CCC(=O)O)C(=O)N[C@@H](CCCNC(=N)N)C(=O)N[C@@H](CCC(=O)O)C(=O)N[C@@H](CCC(N)=O)C(=O)N[C@@H](C)C(=O)N[C@@H](CCC(=O)O)C(=O)N[C@@H](CCCCN)C(=O)N[C@@H](CC(N)=O)C(=O)N[C@H](C(=O)N[C@@H](CCCNC(=N)N)C(=O)N[C@H](C(=O)N[C@@H](CC(C)C)C(=O)N[C@@H](CCC(=O)O)C(=O)N[C@@H](CCCNC(=N)N)C(=O)N[C@H](C(N)=O)C(C)C)[C@@H](C)CC)C(C)C)[C@@H](C)O)C(C)C)C(C)C) [SEQ ID NO: 222]	0.01
IVLSLD[dV]PTKLK([γGlu-Palmitoyl])KKLLKQERKRKEREKAEKNARILERV-NH2 (N-terminus assumed; SMILES CCCCCCCCCCCCCCCC(=O)N[C@@H](CCC(=O)NCCCC[C@H](NC(=O)[C@H](CC(C)C)NC(=O)[C@H](CCCCN)NC(=O)[C@@H](NC(=O)[C@@H]1CCCN1C(=O)[C@H](NC(=O)[C@H](CC(=O)O)NC(=O)[C@H](CC(C)C)NC(=O)[C@H](CO)NC(=O)[C@H](CC(C)C)NC(=O)[C@@H](NC(=O)[C@@H](N)[C@@H](C)CC)C(C)C)C(C)C)[C@@H](C)O)C(=O)N[C@@H](CCCCN)C(=O)N[C@@H](CCCCN)C(=O)N[C@@H](CC(C)C)C(=O)N[C@@H](CC(C)C)C(=O)N[C@@H](CCCCN)C(=O)N[C@@H](CCC(N)=O)C(=O)N[C@@H](CCC(=O)O)C(=O)N[C@@H](CCCNC(=N)N)C(=O)N[C@@H](CCCCN)C(=O)N[C@@H](CCCNC(=N)N)C(=O)N[C@@H](CCCCN)C(=O)N[C@@H](CCC(=O)O)C(=O)N[C@@H](CCCNC(=N)N)C(=O)N[C@@H](CCC(=O)O)C(=O)N[C@@H](CCCCN)C(=O)N[C@@H](C)C(=O)N[C@@H](CCC(=O)O)C(=O)N[C@@H](CCCCN)C(=O)N[C@@H](CC(N)=O)C(=O)N[C@@H](C)C(=O)N[C@@H](CCCNC(=N)N)C(=O)N[C@H](C(=O)N[C@@H](CC(C)C)C(=O)N[C@@H](CCC(=O)O)C(=O)N[C@@H](CCCNC(=N)N)C(=O)N[C@H](C(N)=O)C(C)C)[C@@H](C)CC)C(=O)O) [SEQ ID NO: 25]	0.09
